# Results: the nanobody polyreactivity screen of Harvey et al. (2022)
# Assay: yeast display, Sf9 membrane polyspecificity reagent, FACS + sequencing; frameworks hold sequencing errors
# Method in brief: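 Nanobodies came from a synthetic yeast display library in Saccharomyces cerevisiae BJ5465, induced with galactose for 36–48 hours and stained for 1 hour at 4 °C with 10% biotinylated, detergent-solubilized Sf9 membrane reagent. Cells were enriched on streptavidin microbeads and then FACS-sorted, with low and high (top ~1%) gates set on anti-HA fluorescence for expression and streptavidin fluorescence for reagent binding. Each polyreactivity label reflects the gate a clone came from. Genes were amplified by colony PCR, sequenced by MiSeq 2 × 250 and filtered by CDR length.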
row,Sequence,polyreactivity (PSR sort gate)
1,QVQLVESGRGLVQAGGSLRLSCAASGFIFAKYDMGCYSKAPVKERELVAAITRSGARTYYADSVKGRFTISRDNAKTTVYLQMNSLKPEDTAVYYCAIVTTVYTYDYWGQGTQVTVSS,high polyreactivity
2,QVQLVESGGGLVQAGGSLRLSCAASGSTFLYYAMGWYRQAPGKERELVASITGSGSNTYYADSVKGRFTISRDNAKNTVYLQMNSLKREDTAVYYCATDPQSDIPSWLWYWGEYDYWGHGTQVTVSS,low polyreactivity
3,QVQLVESGGGLVQAGGSLPLTCAASGSIFAWNDMGWYRQAPGKERELVAAIRESGTGTYADSVKGRFTISRDNAKNNVYLQMKSLKPEDTAVYYGVADEIQFFIYRMEYWGQGTQVTVSS,low polyreactivity
4,QVQLVESGGGLDQAGGSLRLSCAASGSNLVSNDMGWYRQAPGKERELVAAMSWSGGSTYYADSVKGRFTISRDNAKNTVYLHMNSLKPEDTAVYYCAAGFGFLFARQELEFDYWGQGTQVTVSS,low polyreactivity
5,QFQLVESGGGLVQAGGSLRLSCAASGRTYRYTMGWSRHAPGKERELVAAISRSGGSTYYADSVKGRFTISRDNAKTTVYLQMNSLIPEDTAVYYCAKVIYRYNETYDYWGQGTQVTVSS,high polyreactivity
6,QVQLVESGGGLVQAGGRLRLSCAASGSISYFNDMGWYRQAPGKERELVAAIRDSGGITYADSVKGRFTISRDNAKNTVYLQMNSLKPEDTAVYYCATYGNEIYDYWGQGTQVTVSS,low polyreactivity
7,QVQLVESGGGLVQAGGSLRLSCAASGFTFRYYAMGWYRQAAGKDRELVAAISSGGRTYYADSVKGRFKISRDNAKNTVYLQMNSLKPADTAVYYCNASRHFRRVEYDYWGQGTQVTVSS,high polyreactivity
8,QVQLVESGGGLVQAGGSLRLSCAASGSIFSFYAMGGYRQPPGKEREFVATITYGSGSTHYADSVKGRFTISRDNAKITVYLQLNSLKPEDTAVYYCAAETVRYEWGESPAALFDYWGQGTQVTVSS,low polyreactivity
9,QVQLVESGGGLVQAGGSLRLSCAASGSTFTVNAMGWYRQAPGKERELVAAINWSGGSTYYADSVKGRFTISRDNAKNTVYLQMNSLKPEDTAVYYCNKDREPYGYWSFDYWGQGTQVTVSS,low polyreactivity
10,QVQLVESGGGLVQAGGSLRLSCAASGFTFASNDMGWYRQAPGKERELVASITKGGGRTYYADSVKGRFTISRDNAKNTVYLQMNSLKPEDTAVFYCAARQLIKYDYWGQGTQVTVSS,low polyreactivity
11,QVQLVESGGGLVQAGGSLRLSCAASGRTFTKYAMGWYRQAPGKERELVAAISNSGGSTFYADSVKGRFTISRDNAKNTVYLQMNSLKPEDTAVYYCAVDLGDTQYVPFDYWGQGTQVTVSS,low polyreactivity
12,QVQLVESGGGLVQAGGSLRLSCAASGITFSGNAMGWYRQAPGKERELVAAISGGGSTNYADSVKGRFTISRDNAKNTVYLQMNSLKPEDTAVYYCAAEIIFWYLYRDYYYWGQGTQVTVSS,low polyreactivity
13,QVQLVESGGGLVQAGGSLRLSCAASGRTFGGYAMGWYRQAPGKERELVAAISKSGGSTYYAVSVKGRFTISRDTAKNTVYLQMNSLKPEDTAVYYCAAQGSSYSTRVWRRYYYWGQGTQVTVSS,high polyreactivity
14,QVQLVESGGGLVQAGGSLRLSCAASGSIFYRYAMGWYRQAPGKERELVAAISSRGGSTNYADSVKGRFTISRDNAKNTVYLQMNSLKPEDTAVYYCAAGWNYLRQFNFNYWGQGTQVTVSS,high polyreactivity
15,QVQLVESGGGLVQAGGSLRLSCAASGRTFDGNAMGWYRQAPGKERELVAAISKRGGTTYYADSVKGRFTISRDKAKNTVYLQMTSLKPEDTAVYYCAAPYNTYSYSEGEYWGQGTQVTVST,low polyreactivity
16,QVQLVESGGGLVQAGGSLRLSCAASGSTFLRNVMGWYRQAPGKERELVAAISSRGGSTHYADSVQGRFTISRDNAKHTVYLQMNSLKPEDTAVYYCNAERTAAQYVRAAYDYWGLGTQVTVSS,low polyreactivity

row,Sequence,polyreactivity (PSR sort gate)
1,QVQLVESWAGLVQAGGSLRLSCAASGSTFSGYTMGWYRQAPGKEREFVAAISSRGGSTYYADSVKGRFTISRDNAKNTVYLHMNSLKPEDTAVYYCAAKVWARVDGRQFRMEYWGQGTQVSVSS,high polyreactivity
2,QVQLVESGGGLVQAGGSLRLSCAASGSIFRYNAMGWYRQEPGKERELVASINGGGGTYYPDSVKGRFTISRDNAKNTVYLQMNSLKPEDTAVLYCNTVVNSFSYASRFNFYYWGQGSQVTVSS,high polyreactivity
3,QVQLVESGGRLVQAGGSLRLSCAASGLTLFRYAKGWYRTAPGKERELVAAIDYGGGTYYADSVKGRFTISRDNAKNTVYLQMNSLKPEDTAVYYCAVEPEYKYYEGDYWGQGTQVTVSS,low polyreactivity
4,QVQLVESGGGLVQAGGSLRLRCAASGRIFTYYAMGWYRPAPGKERELVAAISWSGGSTYYADSVKGRFTISRDNAKNTVYLQMNSLKPEDTAVYYCNAVYPSVYPVSTRYYWGQGTQVTVSS,high polyreactivity
5,QVQLVESGGGLVQAGGSLRLSCAASGFTFGNNAMGWYRQAPGKERELVAAISKRGSSTYYADSVKGRFTISRDNAKNTVYLQMNSLKPEDTAVYYCAAPRSRSRTSRFDYWGQGTQVTVSS,high polyreactivity
6,QVQLVESGGGLVQAGGSLRLSCAASGSTFGGNAMGWYRPAPGKERELVAGITSSGTSTYYADSVKGRFTISRDNAKNTVYLQMNSLKPEDTAVYYCATDEADESYGFELFDYWGQGTQVTVSS,low polyreactivity
7,QVQLVESGGGLFQAGRSLRLSSPASGSSFISYAMGWYRQAPGKDRELVAAITSRGGRTYYADSVKGRFTISRDNAKYTVDLQMNCLKPDDTAVYYCAASFSYRIRRYDYWGQGTQVTVSS,high polyreactivity
8,QVQHVESGGGLVQAGGSLRLSCAASGSIFLVYAMGWYRLAPGKERELVAAISNSGSTNYADSVKGRFTISRDNAKNTVYLQMNSLKPEDTAVYYCAKDSLVDHVGGYDYWGHGTQVTVSS,low polyreactivity
9,QVQLVESGGGLVQAGGSLRLSCAASGIILAYYAMRWYRQAPGKERELVASINRSGGSTYYADSVKGRFTISRDNAKNTVYFQMNSMKPEDTAVYYCDATTRGVGQWWYRYYYWGQGTQVTVSS,high polyreactivity
10,QVQLVESGGGLVQAGGSLRLSCAASGLILYRYAMGWYRQAPGKERELVAAITTSGSSTFYADSVKGRFTISRDNAKNTVYLQMNSLKPEDTAVYYCAATRPRYGIYWYDYWGQGTQVTVSS,high polyreactivity
11,QVQLVESGGGLVQAGGSLRLSCAASGFTFYIYAMGWYRQAPGKERELVAAITGSGGRTYYADSVKGRFTISRDTAKNTVYLQMNSLKPEDTAVYYCAADKYRRGLAGAVARVNYWGQGTQVTVSS,high polyreactivity
12,QVQLVESGGGLVQAGCSLRLSCAASGFIYPVNAMGWYRQAPGKERELVAAITYSTGSTYYADSVKGRFTISRDNAKNTVYLQMNSLKPEDTAVYYCAADVPPGEVVTNDYWGQGTQVTVSS,low polyreactivity
13,QVQLVESGGGLVQAGGSLRLSCAASGSTFSVYAMGWYRQAPGKEMELVATITWNGGRTYYADSVKGRFTISRDNAKNTVYLQMNSLKPEDTAVYYCASPWLKPGNGIYGGYGYWGQGTQVTVSS,high polyreactivity
14,QVQLVESGGGLVQSGGSLRLTCAASGTLFYAMGWSRQAPGKERELVATITQRGGSTYYADSVKGRFTLSRDNAKNTVYLQMNSLKPEDTAVYYCAAAIYRASRRRTSYSYDYCGQGTQVTVSS,high polyreactivity
15,QVQLVESGGGLVQAGGSLRLSCAASGRIFIEYAMGWYRQAPGKERELVATINSSGGRTYYADSVKGRFTISRDNAKNTVYLQMHSLKPEDTAVYYCNADVGLLYTETYEYDYWGQGTQVTVSS,low polyreactivity
